Experimental data published in US11857565B2, “Hydrophobic Auristatin F compounds and conjugates thereof” (priority 2018, dated 2024).

B1: h1F6-mc-vc-MMAE(4): comparator 4-load h1F6 ADC having an mc-vc-MMAE drug linker (conjugate, chains of the INN, looked up)
VH: QVQLVQSGAEVKKPGASVKVSCKASGYTFTNYGMNWVRQAPGQGLKWMGWINTYTGEPTYADAFKGRVTMTRDTSISTAYMELSRLRSDDTAVYYCARDYGDYGMDYWGQGTTVTVSS
VL: DIVMTQSPDSLAVSLGERATINCRASKSVSTSGYSFMHWYQQKPGQPPKLLIYLASNLESGVPDRFSGSGSGTDFTLTISSLQAEDVAVYYCQHSREVPWTFGQGTKVEIK
modifications: mc-vc-MMAE, 4-load
notes: comparator 4-load h1F6 ADC having an mc-vc-MMAE drug linker
B2: h1F6-35(4): 4-load auristatin ADC targeting CD70: h1F6 antibody conjugated to drug linker compound 35 (conjugate, chains of the INN, looked up)
VH: B1 VH
VL: B1 VL
modifications: auristatin drug linker compound 35, 4-load
B3: h1F6-36(4): 4-load auristatin ADC targeting CD70: h1F6 antibody conjugated to drug linker compound 36 (conjugate, chains of the INN, looked up)
VH: B1 VH
VL: B1 VL
modifications: auristatin drug linker compound 36, 4-load

What follows are molecules tested on 786-O Renal Cell Carcinoma (assay: In vitro cytotoxicity, 4-load auristatin ADCs on 786-O). Conditions: 4-load ADC.
Assay type: cell-based
Description: (§1) The cytotoxicity of an auristatin Ligand Drug Conjugate or free auristatin drug was measured by a cell proliferation assay employing the protocol described in Promega Corp. Technical Bulletin TB288; Mendoza et al., 2002, Cancer Res. 62:5485-5488), the methods of which is specifically incorporated by reference herein. Briefly, an aliquot of 100 μl of cell culture containing about […] (e.g., HL-60, SK-MEL-5, etc.) in medium is deposited in each well of a 96-well, opaque-walled plate. Control wells were prepared containing medium and without cells. Free Drug or conjugate is added to the experimental wells and incubated for 96 h and are then equilibrated to room temperature for approximately 30 minutes whereupon a volume of CellTiter-Glo™ reagent equal to the volume of cell culture medium present in each well is added. The contents are mixed for 2 minutes on an orbital shaker to induce cell lysis and the plate is incubated at room temperature for 10 minutes to stabilize the luminescence signal for recordation.

Molecule | In vitro IC50 786-O Renal Cell Carcinoma [ng/mL]
B1 | >1000
B2 | 7
B3 | 4

These molecules were tested on A498 Renal Cell Carcinoma (assay: In vitro cytotoxicity, 4-load auristatin ADCs on A498). Conditions: 4-load ADC.
Assay type: cell-based
Description: as §1

Molecule | In vitro IC50 A498 Renal Cell Carcinoma [ng/mL]
B1 | >1000
B2 | 23
B3 | 9

These molecules were tested on L428 Hodgkin Lymphoma (assay: In vitro cytotoxicity, 4-load auristatin ADCs on L428). Conditions: 4-load ADC.
Assay type: cell-based
Description: as §1

Molecule | In vitro IC50 L428 Hodgkin Lymphoma [ng/mL]
B1 | >1000
B2 | 2
B3 | 1
